This note sets out measurements from patent publication CN115490770A (GMAX BIOPHARM HANGZHOU CO LTD, dated 2022).

One may read the EC50 as the concentration giving half of the maximal effect. The low end stands for an effect from little substance, the high end for a need for much substance.

In assay [1] the target is T1, 人ETA (内皮素受体A) (human, UniProt P25101 21-427).
T1 construct: whole, on cells; The plasmid's ETA construct is not described further; also called CHO-ETA; CHO-ETA-EGFP
T1 sequence (looked up): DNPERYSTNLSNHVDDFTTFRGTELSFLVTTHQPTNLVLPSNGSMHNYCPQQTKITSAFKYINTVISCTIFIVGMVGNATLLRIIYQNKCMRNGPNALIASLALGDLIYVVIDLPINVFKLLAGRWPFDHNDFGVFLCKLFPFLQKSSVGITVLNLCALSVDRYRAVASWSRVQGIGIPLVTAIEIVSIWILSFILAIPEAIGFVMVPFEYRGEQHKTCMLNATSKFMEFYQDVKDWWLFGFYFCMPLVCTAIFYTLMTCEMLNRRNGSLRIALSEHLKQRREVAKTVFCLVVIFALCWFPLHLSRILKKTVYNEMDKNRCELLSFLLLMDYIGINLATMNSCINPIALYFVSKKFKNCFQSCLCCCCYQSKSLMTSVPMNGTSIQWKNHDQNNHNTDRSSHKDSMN
Nature of the assay: flow cytometry (FACS) on CHO-ETA cells, anti-human IgG Fc PE secondary. On the technique in general: Flow cytometry measures light scatter and fluorescence of single cells or particles in a stream.

Assay [2] addresses T2, 人CD3 (human, UniProt P07766 23-207).
T2 construct: whole, on cells; Natural CD3 complex on Jurkat T cells (and CIK cells); also called Jurkat细胞表面人CD3分子
Nature of the assay: flow cytometry (FACS) on Jurkat cells, anti-human IgG Fc PE secondary.

T2 sequence (P07766 23-207): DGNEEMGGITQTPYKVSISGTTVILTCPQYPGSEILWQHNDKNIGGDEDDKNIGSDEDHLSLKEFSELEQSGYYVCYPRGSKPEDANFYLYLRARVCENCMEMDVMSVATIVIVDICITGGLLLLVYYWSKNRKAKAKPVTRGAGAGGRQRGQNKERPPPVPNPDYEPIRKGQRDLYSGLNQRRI

B1: αETA(L5H5,SEQ NO ID:19+SEQ NO ID:20)/αCD3(L3H3,SEQ NO ID:15+SEQ NO ID:16)双特异性抗体 (bispecific antibody)
chain 1: QVTLKESGPTLVKPTQTLTLTCTFSGFSLTTSGLGVAWIRQPPGKALEWLAHIWSDGDTRYYPALKNRLTITKDTSKNQVVLTMTNMDPVDTATYYCAHMKDDSLYFDNWGQGTLVTVSS
chain 2: EIVLTQSPDFQSVTPKEKVTITCRASQNIGTSIHWYQQKPDQSPKLLIKYASKSISGVPSRFSGSGSGTDFTLTINSLEAEDAATYYCQHSYSFPWTFGQGTKVEIK
chain 3: EAVVTQEPSLTVSPGGTVTLTCRSSTGAVTTSNYANWVQQKPGQAPRGLIGGTNKRAPWTPARFSGSLLGGKAALTLSGAQPEDEAEYYCALWYSNLWVFGGGTKLTVL
chain 4: EVQLVESGGGLVQPGGSLRLSCAASGFTFNTYAMNWVRQAPGKGLEWVGRIRSKYNNYATYYADSVKDRFTISRDDSKNTLYLQMNSLRAEDTAVYYCVRHGNFGNSYVSWFAYWGQGTLVTVSS
Take B1: the values for the EC50 in assay [1] and in assay [2] were 3.51 nM and 10.7 nM, respectively.
